# The Immune Epitope Database (IEDB)
# Key:
# HLA-B*15:01 = assay: IEDB peptide-MHC binding, purified MHC/direct/fluorescence; filed as Kd, often an IC50 or EC50 that approximates it; ≥ and ≤ were set here for values at or beyond the usual limits of such assays; settings: source organism: SARS-CoV1
# HLA-B*58:01 = assay: as above; settings: source organism: SARS-CoV1
# HLA-A*03:01 [1] = assay: as above; settings: source organism: SARS-CoV1
# HLA-A*01:01 [2] = assay: as above; settings: source organism: SARS-CoV1
# HLA-A*11:01 [3] = assay: as above; settings: source organism: SARS-CoV1
# HLA-A*30:02 = assay: IEDB peptide-MHC binding, purified MHC/competitive/radioactivity; filed as Kd, often an IC50 or EC50 that approximates it; ≥ and ≤ were set here for values at or beyond the usual limits of such assays
# HLA-A*26:01 = assay: as above
# HLA-A*23:01 = assay: as above
# HLA-A*24:02 = assay: as above
# HLA-A*29:02 = assay: as above
# HLA-A*01:01 [4] = assay: as above
# HLA-A*02:01 [5] = assay: IEDB peptide-MHC binding, purified MHC/competitive/fluorescence; ≥ and ≤ were set here for values at or beyond the usual limits of such assays
# HLA-A*03:01 [6] = assay: IEDB peptide-MHC binding, purified MHC/competitive/radioactivity; filed as Kd, often an IC50 or EC50 that approximates it; ≥ and ≤ were set here for values at or beyond the usual limits of such assays
# HLA-A*30:01 = assay: as above
# HLA-A*11:01 [7] = assay: as above
# HLA-A*31:01 = assay: as above; settings: source organism: Vaccinia virus WR
# HLA-A*33:01 = assay: as above; settings: source organism: Vaccinia virus WR
# HLA-A*68:01 = assay: as above; settings: source organism: Vaccinia virus WR
# HLA-A*02:01 [8] = assay: IEDB peptide-MHC binding, purified MHC/competitive/fluorescence; filed as Kd, often an IC50 or EC50 that approximates it; ≥ and ≤ were set here for values at or beyond the usual limits of such assays
# [9] = source organism: SARS coronavirus Tor2
# [10] = source organism: Dengue virus 4 Philippines/H241/1956
# [11] = source organism: Dengue virus 1 Brazil/97-11/1997
# [12] = source organism: Dengue virus 2 Jamaica/1409/1983
# [13] = source organism: Vaccinia virus WR
# [14] = source organism: Dengue virus 3 Martinique/1243/1999
# [15] = source organism: Zaire ebolavirus
# [16] = source organism: Lymphocytic choriomeningitis virus (strain Armstrong)
# [17] = source organism: Mammarenavirus juninense
# [18] = source organism: Human alphaherpesvirus 1 strain 17
# [19] = source organism: Sudan ebolavirus
# [20] = source organism: Vaccinia virus Copenhagen
# [21] = source organism: Mammarenavirus guanaritoense
# [22] = source organism: Mammarenavirus brazilense
sequence,measurement,setting,value
TSNPKTPKY,Kd,HLA-B*15:01,393 nM
same,Kd,HLA-B*58:01,212 nM
same,Kd,HLA-A*03:01 [1],1230 nM
same,Kd,HLA-A*01:01 [2],4520 nM
same,Kd,HLA-A*11:01 [3],14300 nM
same,Kd,HLA-A*30:02; [9],0.228 nM
same,Kd,HLA-A*26:01; [9],≥ 56400 nM
same,Kd,HLA-A*23:01; [9],≥ 77800 nM
same,Kd,HLA-A*24:02; [9],≥ 77600 nM
same,Kd,HLA-A*29:02; [9],549 nM
MFGGVSWMV,Kd,HLA-A*23:01; [10],8790 nM
ETLEQMQRKH,Kd,HLA-A*26:01; [11],14000 nM
IITASILLWY,Kd,HLA-A*01:01 [4]; [12],93.2 nM
KIGDFGLATV,IC50,HLA-A*02:01 [5]; source organism: Homo sapiens,40 nM
RSTPFNMLK,Kd,HLA-A*03:01 [6]; [12],8.05 nM
same,Kd,HLA-A*30:01; [12],20.4 nM
same,Kd,HLA-A*11:01 [7]; [12],14.1 nM
AKQPATLRKY,Kd,HLA-A*30:02; [12],5240 nM
CTLSEQLDY,Kd,HLA-A*30:02; [9],27.6 nM
same,Kd,HLA-A*26:01; [9],842 nM
same,Kd,HLA-A*23:01; [9],≥ 77800 nM
same,Kd,HLA-A*24:02; [9],≥ 77600 nM
same,Kd,HLA-A*29:02; [9],1.05 nM
same,Kd,HLA-A*01:01 [4]; [9],8.53 nM
NSLEVEDYGF,Kd,HLA-A*23:01; [12],5430 nM
ASKSLKPTK,Kd,HLA-A*30:01; [13],15.1 nM
TNLEYKTLC,IC50,HLA-A*02:01 [5]; source organism: Vaccinia virus,≥ 773000 nM
VLPEEQDQNY,Kd,HLA-A*30:02; [14],6870 nM
same,Kd,HLA-A*01:01 [4]; [14],11000 nM
NFKHLREFVF,Kd,HLA-A*30:02; [9],≥ 78900 nM
same,Kd,HLA-A*26:01; [9],≥ 69700 nM
same,Kd,HLA-A*23:01; [9],115 nM
same,Kd,HLA-A*24:02; [9],260 nM
same,Kd,HLA-A*29:02; [9],16.4 nM
same,Kd,HLA-A*01:01 [4]; [9],≥ 70400 nM
RVLFSIFYK,Kd,HLA-A*31:01,0.861 nM
same,Kd,HLA-A*03:01 [6]; [13],5.35 nM
same,Kd,HLA-A*33:01,1860 nM
same,Kd,HLA-A*68:01,120 nM
same,Kd,HLA-A*30:01; [13],118 nM
same,Kd,HLA-A*11:01 [7]; [13],53.2 nM
QFLYLYALI,Kd,HLA-A*30:02; [9],≥ 26700 nM
same,Kd,HLA-A*26:01; [9],10100 nM
same,Kd,HLA-A*23:01; [9],0.117 nM
same,Kd,HLA-A*24:02; [9],26.1 nM
same,Kd,HLA-A*29:02; [9],64.1 nM
same,Kd,HLA-A*01:01 [4]; [9],2320 nM
ASLFLPKLV,IC50,HLA-A*02:01 [5]; [15],11900 nM
IVQYENLKY,Kd,HLA-A*30:02; [11],191 nM
same,Kd,HLA-A*01:01 [4]; [11],5950 nM
GVVTKSGDY,Kd,HLA-A*30:02; [10],980 nM
same,Kd,HLA-A*26:01; [10],2420 nM
AIKVLRGFK,Kd,HLA-A*03:01 [6]; [11],119 nM
same,Kd,HLA-A*30:01; [11],501 nM
RVLSIPPTA,Kd,HLA-A*30:01; [10],118 nM
LTRYALHGK,Kd,HLA-A*30:01; [13],0.252 nM
SFYADPKRFF,Kd,HLA-A*23:01; [16],126 nM
same,Kd,HLA-A*24:02; [16],709 nM
same,Kd,HLA-A*29:02; [16],44.4 nM
VVLTGGTGV,IC50,HLA-A*02:01 [5]; source organism: Variola virus,3800 nM
FYQKTGEKS,Kd,HLA-A*30:02; [17],≥ 40800 nM
same,Kd,HLA-A*26:01; [17],≥ 77900 nM
same,Kd,HLA-A*24:02; [17],≥ 58700 nM
same,Kd,HLA-A*01:01 [4]; [17],≥ 78100 nM
GLYKSINVE,IC50,HLA-A*02:01 [5]; [13],39500 nM
TEQAFYTRV,IC50,HLA-A*02:01 [5]; [13],≥ 98400 nM
TEAEKQLQQ,IC50,HLA-A*02:01 [5]; [15],≥ 338000 nM
LTSREVLLL,Kd,HLA-A*01:01 [4]; [11],288 nM
RIQQYMFFM,Kd,HLA-A*02:01 [8]; [18],81 nM
TTPENITTA,IC50,HLA-A*02:01 [5]; [19],19000 nM
HVTRGAVLMY,Kd,HLA-A*26:01; [11],233 nM
KVKKKYAIG,Kd,HLA-A*30:01; [13],1.55 nM
LNGAMVEYV,IC50,HLA-A*02:01 [5]; [20],29100 nM
TGILGSLGL,IC50,HLA-A*02:01 [5]; [19],≥ 92700 nM
RSQGPFDAV,IC50,HLA-A*02:01 [5]; [15],≥ 163000 nM
IMAILCVPNA,Kd,HLA-A*30:01; [12],45 nM
KSKSRRLNL,Kd,HLA-A*30:01; [13],12.6 nM
HAKSQCRPS,Kd,HLA-A*30:01; [20],854 nM
DWVPTSRTTW,Kd,HLA-A*23:01; [11],6770 nM
same,Kd,HLA-A*24:02; [11],886 nM
SWLVHKQWFL,Kd,HLA-A*23:01; [11],173 nM
same,Kd,HLA-A*24:02; [11],2700 nM
ESEIPNLDII,Kd,HLA-A*01:01 [4]; [12],7190 nM
SFFLWVIIL,IC50,HLA-A*02:01 [5]; [15],14600 nM
CLTEYILWV,Kd,HLA-A*02:01 [8]; [20],10.7 nM
ALSALLTKL,Kd,HLA-A*02:01 [8]; [18],313 nM
KHKIFSPFK,Kd,HLA-A*30:01; [13],0.886 nM
FLADKKMTL,Kd,HLA-A*02:01 [8]; [13],1.5 nM
HVFFSEYIV,Kd,HLA-A*30:01; [13],883 nM
TGPCPGDYA,IC50,HLA-A*02:01 [5]; [19],34900 nM
AIFFTTSLF,Kd,HLA-A*23:01; [21],246 nM
same,Kd,HLA-A*24:02; [21],1210 nM
same,Kd,HLA-A*29:02; [21],274 nM
EEALKGLPIR,Kd,HLA-A*30:01; [14],609 nM
ETTKKDLGI,Kd,HLA-A*26:01; [11],≥ 54700 nM
LAGVSLLPVC,Kd,HLA-A*30:01; [14],15900 nM
GMSRIGMEV,Kd,HLA-A*02:01 [8]; source organism: SARS-CoV1,1.6 nM
EFFECFKYLL,Kd,HLA-A*23:01; [22],624 nM
same,Kd,HLA-A*24:02; [22],1200 nM
same,Kd,HLA-A*29:02; [22],32.7 nM
RNRVSTPQG,Kd,HLA-A*30:01; [10],132 nM
LSEKEENMV,Kd,HLA-A*01:01 [4]; [10],6470 nM
MPQMKKILK,Kd,HLA-A*02:01 [8]; [13],2010 nM
LYTVKFPNLI,Kd,HLA-A*23:01; [22],538 nM
same,Kd,HLA-A*24:02; [22],605 nM
same,Kd,HLA-A*29:02; [22],≥ 54700 nM
